Assay results taken from IntAct's records for PubMed 22531782.

B1: E3 ubiquitin-protein ligase RNF8 (Homo sapiens), O76064 (parent)
chain: MGEPGFFVTGDRAGGRSWCLRRVGMSAGWLLLEDGCEVTVGRGFGVTYQLVSKICPLMISRNHCVLKQNPEGQWTIMDNKSLNGVWLNRARLEPLRVYSIHQGDYIQLGVPLENKENAEYEYEVTEEDWETIYPCLSPKNDQMIEKNKELRTKRKFSLDELAGPGAEGPSNLKSKINKVSCESGQPVKSQGKGEVASTPSDNLDPKLTALEPSKTTGAPIYPGFPKVTEVHHEQKASNSSASQRSLQMFKVTMSRILRLKIQMQEKHEAVMNVKKQTQKGNSKKVVQMEQELQDLQSQLCAEQAQQQARVEQLEKTFQEEEQHLQGLEIAQGEKDLKQQLAQALQEHWALMEELNRSKKDFEAIIQAKNKELEQTKEEKEKMQAQKEEVLSHMNDVLENELQCIICSEYFIEAVTLNCAHSFCSYCINEWMKRKIECPICRKDIKSKTYSLVLDNCINKMVNNLSSEVKERRIVLIRERKAKRLF

Variants of: B1
Conditions: with chd4_human CHD4, Q14839
Chain of chd4_human CHD4, Q14839 (Q14839 whole entry): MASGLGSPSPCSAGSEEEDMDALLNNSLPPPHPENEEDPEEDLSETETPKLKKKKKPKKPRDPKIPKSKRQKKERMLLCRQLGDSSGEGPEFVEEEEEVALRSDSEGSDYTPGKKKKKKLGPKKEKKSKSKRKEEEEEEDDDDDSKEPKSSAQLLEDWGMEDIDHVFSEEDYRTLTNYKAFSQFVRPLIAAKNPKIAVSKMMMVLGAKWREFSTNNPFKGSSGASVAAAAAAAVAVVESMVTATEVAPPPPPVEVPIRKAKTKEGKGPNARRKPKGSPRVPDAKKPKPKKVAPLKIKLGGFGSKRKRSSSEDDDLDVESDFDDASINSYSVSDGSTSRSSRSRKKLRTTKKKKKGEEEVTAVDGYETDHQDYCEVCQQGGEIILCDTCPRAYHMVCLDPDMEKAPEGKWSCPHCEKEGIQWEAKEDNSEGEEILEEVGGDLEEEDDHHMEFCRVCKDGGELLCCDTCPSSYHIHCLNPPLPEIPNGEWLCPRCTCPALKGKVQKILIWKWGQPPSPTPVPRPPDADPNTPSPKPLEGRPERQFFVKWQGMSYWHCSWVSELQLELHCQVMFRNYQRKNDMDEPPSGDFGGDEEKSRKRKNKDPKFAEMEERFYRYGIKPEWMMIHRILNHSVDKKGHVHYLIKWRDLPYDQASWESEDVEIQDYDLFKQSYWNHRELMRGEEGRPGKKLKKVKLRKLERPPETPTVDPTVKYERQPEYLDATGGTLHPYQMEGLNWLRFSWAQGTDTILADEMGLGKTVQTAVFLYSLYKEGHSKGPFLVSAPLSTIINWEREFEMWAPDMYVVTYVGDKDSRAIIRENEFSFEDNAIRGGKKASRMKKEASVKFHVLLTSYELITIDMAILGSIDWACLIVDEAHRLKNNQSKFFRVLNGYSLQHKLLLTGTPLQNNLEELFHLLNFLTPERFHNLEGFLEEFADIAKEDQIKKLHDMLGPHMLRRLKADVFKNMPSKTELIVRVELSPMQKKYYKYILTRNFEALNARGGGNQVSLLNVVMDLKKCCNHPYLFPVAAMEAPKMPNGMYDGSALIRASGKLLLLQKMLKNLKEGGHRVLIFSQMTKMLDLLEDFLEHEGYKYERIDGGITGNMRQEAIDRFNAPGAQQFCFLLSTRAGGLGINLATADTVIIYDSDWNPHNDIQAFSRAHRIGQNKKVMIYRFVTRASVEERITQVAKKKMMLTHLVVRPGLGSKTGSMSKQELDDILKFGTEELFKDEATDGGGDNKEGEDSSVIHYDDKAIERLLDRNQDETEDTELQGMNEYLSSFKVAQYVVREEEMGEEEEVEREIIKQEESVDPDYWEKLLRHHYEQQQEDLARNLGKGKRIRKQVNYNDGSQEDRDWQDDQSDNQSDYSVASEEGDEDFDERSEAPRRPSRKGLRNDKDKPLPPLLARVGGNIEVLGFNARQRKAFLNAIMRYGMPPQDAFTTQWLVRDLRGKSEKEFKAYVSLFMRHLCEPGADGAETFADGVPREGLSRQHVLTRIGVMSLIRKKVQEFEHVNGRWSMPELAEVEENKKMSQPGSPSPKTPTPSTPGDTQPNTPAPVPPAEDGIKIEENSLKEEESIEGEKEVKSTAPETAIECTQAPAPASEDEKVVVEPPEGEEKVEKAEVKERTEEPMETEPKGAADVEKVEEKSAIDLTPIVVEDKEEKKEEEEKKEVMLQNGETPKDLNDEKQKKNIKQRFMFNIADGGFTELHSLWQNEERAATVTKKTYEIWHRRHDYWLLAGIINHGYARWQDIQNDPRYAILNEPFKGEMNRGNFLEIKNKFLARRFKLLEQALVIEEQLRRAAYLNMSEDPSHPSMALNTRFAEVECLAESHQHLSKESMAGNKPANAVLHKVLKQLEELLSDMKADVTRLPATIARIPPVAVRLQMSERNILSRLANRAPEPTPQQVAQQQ

| Variant | effect of a mutation on the interaction |
| --- | --- |
| MGEPGFFVTGDRAGGRSWCLRRVGMSAGWLLLEDGCEVTVGRGFGVTYQLVSKICPLMISRNHCVLKQNPEGQWTIMDNKSLNGVWLNRARLEPLRVYSIHQGDYIQLGVPLENKENAEYEYEVTEEDWETIYPCLSPKNDQMIEKNKELRTKRKFSLDELAGPGAEGPSNLKSKINKVSCESGQPVKSQGKGEVASTPSDNLDPKLTALEPSKTTGAPIYPGFPKVTEVHHEQKASNSSASQRSLQMFKVTMSRILRLKIQMQEKHEAVMNVKKQTQKGNSKKVVQMEQELQDLQSQLCAEQAQQQARVEQLEKTFQEEEQHLQGLEIAQGEKDLKQQLAQALQEHWALMEELNRSKKDFEAIIQAKNKELEQTKEEKEKMQAQKEEVLSHMNDVLENELQSIICSEYFIEAVTLNCAHSFCSYCINEWMKRKIECPICRKDIKSKTYSLVLDNCINKMVNNLSSEVKERRIVLIRERKAKRLF [C403S] | increasing interaction |
| MGEPGFFVTGDRAGGRSWCLRRVGMSAGWLLLEDGCEVTVGAGFGVTYQLVSKICPLMISRNHCVLKQNPEGQWTIMDNKSLNGVWLNRARLEPLRVYSIHQGDYIQLGVPLENKENAEYEYEVTEEDWETIYPCLSPKNDQMIEKNKELRTKRKFSLDELAGPGAEGPSNLKSKINKVSCESGQPVKSQGKGEVASTPSDNLDPKLTALEPSKTTGAPIYPGFPKVTEVHHEQKASNSSASQRSLQMFKVTMSRILRLKIQMQEKHEAVMNVKKQTQKGNSKKVVQMEQELQDLQSQLCAEQAQQQARVEQLEKTFQEEEQHLQGLEIAQGEKDLKQQLAQALQEHWALMEELNRSKKDFEAIIQAKNKELEQTKEEKEKMQAQKEEVLSHMNDVLENELQCIICSEYFIEAVTLNCAHSFCSYCINEWMKRKIECPICRKDIKSKTYSLVLDNCINKMVNNLSSEVKERRIVLIRERKAKRLF [R42A] | increasing interaction |
